Experiment [1] has as its target T1, anti-DENV E protein antibody comprising a modified IgG heavy chain constant region (SEQ ID NO: 116).
T1 construct: also called anti-DENY E protein antibody; Fc-Mutated Antibody
Briefly: SPR (Biacore T200), 25 C, pH 7.4; SKA antibody captured by anti-rabbit IgG, anti-DENV E protein antibody injected 0-400 nM. From the text:
(§1) Anti-rabbit IgG was immobilized onto FC 3 and 4 of a CMS sensor chip using an amine coupling kit (GE Healthcare). For the immobilization of anti-rabbit IgG, HBS-EP+, pH7.4 (GE Healthcare) buffer was used as running buffer. After the immobilization, running buffer was changed to phosphate pH7.4 buffer. Each antibody was captured onto FC4 of the sensor chip by anti-rabbit IgG. The amount of Anti Fc-Mutation Antibody to be captured was adjusted so that the number of resonance units (RU) was 100.
A general note: SPR reads the build-up and loss of mass on a sensor chip optically.

Experiment [2] deals with T1, anti-DENV E protein antibody comprising …. Description: SPR (Biacore T200), 25 C, pH 7.4; SKA antibody captured by anti-rabbit IgG, anti-DENV E protein antibody injected 0-400 nM; *reliability might be low.
Description: as §1

T1 sequence (constant, as listed by the source limits assumed): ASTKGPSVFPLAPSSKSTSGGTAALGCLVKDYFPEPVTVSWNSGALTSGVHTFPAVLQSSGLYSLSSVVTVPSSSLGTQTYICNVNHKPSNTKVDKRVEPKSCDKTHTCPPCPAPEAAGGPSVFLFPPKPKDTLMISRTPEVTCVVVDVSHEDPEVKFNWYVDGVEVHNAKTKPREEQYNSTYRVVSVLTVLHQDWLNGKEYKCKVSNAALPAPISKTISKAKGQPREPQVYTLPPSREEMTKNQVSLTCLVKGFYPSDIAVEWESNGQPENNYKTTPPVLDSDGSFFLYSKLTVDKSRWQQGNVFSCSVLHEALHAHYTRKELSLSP

B1: SKA0027 (antibody, V domains shown)
VH: QEQLVESGGGLVQPEGSLTLTCTASGFSFSSSDYMCWVRQAPGKGLEWIGCIYTGSGSTYYASWAKGRFTISKTSSTTVTLQMTSLTAADTATFFCARRGDSYSNYSFKLWGPGTLVTVSS
VL: AFELTQTPASVEAAVGGTVTIKCQASQNIYSNLAWYQQKPGQPPKLLIYTASSLASGVSSRFKGSGSGTEFTLTISDLECDDAATYYCQCTYINNGYGNTFGGGTEVVVKG
notes: Recombinant rabbit monoclonal from B-cell cloning, expressed in FreeStyle 293-F cells; the first screen used B-cell culture supernatant; also called Anti-SG115 Antibody; rabbit Anti Fc-Mutation Antibody
Consider B1, for which, in experiment [1], the dissociation constant (Kd) turned out to be 1000 pM, the koff amounted to 0.000191 s⁻¹ and the kon stood at 190000 M⁻¹ s⁻¹.

B2: SKA0171 (antibody, V domains shown)
VH: QSLEESGGGLVQPEGSLTLSCTASGFSFSSSYYMCWVRQAPGKGLEWIACIYGGNSVITYYANWAKGRFTISETSSTTVTLQMTSLTAADTATYFCAREVHYDYLYTTYGYANLWGPGTLVTVSS
VL: AIKMTQTPASVSAVVGGTVTINCQASETIYSGLAWYQQKPGQPPKLLIYDTANLETGVSSRFKGSGSGTEYTLTISDLECDDAATYFCLYAYYSGGSADNAFGGGTEVVVKG
notes: as for B1
In experiment [1], B2 showed a Kd of 1450 pM, a koff of 0.00149 s⁻¹ and a kon of 1.02e+06 M⁻¹ s⁻¹.

B3: SKA0028 (antibody, V domains shown)
VH: QSVEESGGRLVTPGTPLTLTCTASGFTISSYHMSWVRQAPGKGLEWIGIIHGSGNMWYASWAKGRFTISRTSTTVDLEITSPTTEDTATYFCARIRFWASSNYYYFYLWGQGTLVTVSS
VL: ALVMTQTPASVSEPVGGTVTINCQASQNIYSNLAWYQQKPGQRPRLLIYGASNLESGVPSRFRGSGSGTEFTLTISDLECADAATYYCQSAYWGNNNDGAFGGGTEVVVKG
notes: as for B1
In experiment [1], B3 showed a koff of 7.27e-05 s⁻¹ and a kon of 116000 M⁻¹ s⁻¹. The same molecule showed a Kd in experiment [2] of 626 pM.

B4: SKA0117 (antibody, V domains shown)
VH: QSLEESGGDLVKPEGSLTLTCTASGFSFSSSHYMCWVRQAPGKGLEWIACIYAGSSDNTYYASWAKGRFTISKTSSTTVTLQMTSLTAADTATYFCARDTYGYVGYASAGGFFNLWGPGTLVTVSS
VL: ALVMTQTPASVSAAVGGTVTINCQASHNIYSVLAWYQQKPGQRPRLLIYGASNLESGVPSRFKGSGSGTEYTLTISDLECDDAATYYCQSAYYSSSTGDNAFGGGTEVVVKG
notes: as for B1
For B4, in experiment [1], the association rate constant (kon) is 126000 M⁻¹ s⁻¹. Further, in experiment [2], the affinity, expressed as Kd, was 0.275 pM and the koff came to 3.46e-08 s⁻¹.

B5: SKA0141 (antibody, V domains shown)
VH: QSLEESGGDLVKPGASLTLTCTASGFSFSSSYYMCWVRQAPGKGLEWIACIYAGSSGSTYYASWAKGRFTISKTSSTTVTLQMTSLTAADTATYFCARDGDENMLVGGYFNLWGPGTLVTVSS
VL: ALVMTQTPSSVSAAVGGTVTINCQASHNIYSNLAWYQQKPGQRPKLLIYGASNLESGVPSRFKGSGSGTEYTLTISDLECDDAATYYCQSAYYSSNAGYNAFGGGTEVVVKG
notes: as for B1
Consider B5, for which, in experiment [1], the Kd was 5040 pM, the koff is 0.00135 s⁻¹ and the kon was determined as 267000 M⁻¹ s⁻¹.

B6: SKA0001 (antibody, V domains shown)
VH: QSVEESGGRLVTPGTPLTLTCTVSGFSLSYYAMNWVRQAPGKGLEWIGIIGISGGTYYASWAKGRFTISKSSSTTVDLKMTSPTTEDTATYFCARGGSAWGDLWGQGTLVTVSS
VL: DIVMTQTPSSVSAAVGGTVTINCQASQSISRLLAWYQQKPGQPPKVLMHDASDLASGVPSRFKGSGSGTEYTLTISDLECADAATYYCQSYYWGSSGDIGYPFGGGTEVVVKG
notes: as for B1
In experiment [1], B6 gave an on-rate (kon) of 44400 M⁻¹ s⁻¹. In experiment [2], the affinity, expressed as Kd, was 2.78 pM and the koff is 1.23e-07 s⁻¹.

As a reminder, the Kd is the concentration at which binding is half-saturated. Higher therefore signals weaker binding. What is called koff is a measure of how fast the partners let go of each other. Lower therefore signals a long-lived complex. The kon is the second-order rate constant of association. A higher kon goes with fast association.

These data come from patent publication US20220195070A1 (Chugai, published 2022).
